In paper PMC11176775 one finds fold difference in KD against LIGIIIα▵ZnF, Kd and fold reduction of binding against the full-length proteins data, which are given here for 9 substances.

In assay [1] the target is Apurinic/apyrimidinic-endonuclease 1 (UniProt P27695). The assay is described as follows: SPR; Biacore X-100, 25 °C; GST-tag polβ or APE1 immobilised on CM5 chip (EDC/NHS, 10 mM sodium acetate pH 4.0), his-tag LIG1 or LIGIIIα proteins as analytes; 10 mM Hepes pH 7.4, 150 mM NaCl, 3 mM EDTA, 0.005% P20; 1:1 (Langmuir) model; polβ truncated mutants (Fig. S2) tested likewise, orientation not given. (Surface plasmon resonance follows binding to a sensor surface in real time, without labels.)
Chain of Apurinic/apyrimidinic-endonuclease 1 (P27695 whole entry, the tested form may be a part): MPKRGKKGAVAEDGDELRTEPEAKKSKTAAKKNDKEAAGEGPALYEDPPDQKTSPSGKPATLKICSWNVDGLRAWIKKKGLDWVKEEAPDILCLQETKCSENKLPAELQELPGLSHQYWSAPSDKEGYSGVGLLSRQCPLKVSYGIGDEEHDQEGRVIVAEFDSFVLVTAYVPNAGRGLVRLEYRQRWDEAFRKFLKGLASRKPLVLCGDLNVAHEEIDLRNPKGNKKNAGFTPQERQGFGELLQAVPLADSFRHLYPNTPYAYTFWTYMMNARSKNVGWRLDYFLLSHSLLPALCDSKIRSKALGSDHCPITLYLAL

Assay [2] deals with GST-tag DNA polymerase β, full-length (1–335 amino acids) (UniProt P06746). Described as above.
Assay [3] has as its target His-tag LIGIIIα full-length (DNA ligase IIIα, 1–922 amino acids). The assay is described as follows: SPR; Supplementary Figures 2 and 3; partner immobilised on the CM5 chip not given; Biacore X-100, 25 °C; 10 mM Hepes pH 7.4, 150 mM NaCl, 3 mM EDTA, 0.005% surfactant P20; 1:1 (Langmuir) fit.
In assay [4] the target is Polβ N-terminal (1–92 amino acids) (UniProt P06746). Nature of the assay: SPR; Biacore X-100, 25 °C; GST-tag polβ or APE1 immobilised on CM5 chip (EDC/NHS, 10 mM sodium acetate pH 4.0), his-tag LIG1 or LIGIIIα proteins as analytes; 10 mM Hepes pH 7.4, 150 mM NaCl, 3 mM EDTA, 0.005% P20; 1:1 (Langmuir) model; polβ truncated mutants (Fig. S2) tested likewise, orientation not given.

Assay [5] addresses Polβ C-terminal (92–335 amino acids) (UniProt P06746). Described as above.
Assay [6] addresses GST-tag polβ full-length (DNA polymerase β, 1–335 amino acids) (UniProt P06746). Nature of the assay: SPR; Supplementary Figures 2 and 3; partner immobilised on the CM5 chip not given; Biacore X-100, 25 °C; 10 mM Hepes pH 7.4, 150 mM NaCl, 3 mM EDTA, 0.005% surfactant P20; 1:1 (Langmuir) fit.
Assay [7] addresses Polβ C-terminal (92–335 amino acids), as used in SPR (UniProt P06746). The assay is described as above.
Assay [8] concerns the target GST-tag APE1 full-length (apurinic/apyrimidinic-endonuclease 1) (UniProt P27695). The assay is described as follows: SPR; GST-tag polβ or APE1 immobilised on CM5 chip (EDC/NHS), his-tag LIG1 or LIGIIIα passed as analyte; Biacore X-100, 25 °C; 10 mM Hepes pH 7.4, 150 mM NaCl, 3 mM EDTA, 0.005% surfactant P20; 1:1 (Langmuir) fit.
Assay [9] concerns the target GST-tag polβ full-length (DNA polymerase β, 1–335 amino acids) (UniProt P06746). The description is as above.

Chain of GST-tag APE1 full-length (apurinic/apyrimidinic-endonuclease 1) (P27695 whole entry, the tested form may be a part): as above
Chain of poly (ADP-ribose) polymerase 1 (PARP1), his-tag (P09874 whole entry): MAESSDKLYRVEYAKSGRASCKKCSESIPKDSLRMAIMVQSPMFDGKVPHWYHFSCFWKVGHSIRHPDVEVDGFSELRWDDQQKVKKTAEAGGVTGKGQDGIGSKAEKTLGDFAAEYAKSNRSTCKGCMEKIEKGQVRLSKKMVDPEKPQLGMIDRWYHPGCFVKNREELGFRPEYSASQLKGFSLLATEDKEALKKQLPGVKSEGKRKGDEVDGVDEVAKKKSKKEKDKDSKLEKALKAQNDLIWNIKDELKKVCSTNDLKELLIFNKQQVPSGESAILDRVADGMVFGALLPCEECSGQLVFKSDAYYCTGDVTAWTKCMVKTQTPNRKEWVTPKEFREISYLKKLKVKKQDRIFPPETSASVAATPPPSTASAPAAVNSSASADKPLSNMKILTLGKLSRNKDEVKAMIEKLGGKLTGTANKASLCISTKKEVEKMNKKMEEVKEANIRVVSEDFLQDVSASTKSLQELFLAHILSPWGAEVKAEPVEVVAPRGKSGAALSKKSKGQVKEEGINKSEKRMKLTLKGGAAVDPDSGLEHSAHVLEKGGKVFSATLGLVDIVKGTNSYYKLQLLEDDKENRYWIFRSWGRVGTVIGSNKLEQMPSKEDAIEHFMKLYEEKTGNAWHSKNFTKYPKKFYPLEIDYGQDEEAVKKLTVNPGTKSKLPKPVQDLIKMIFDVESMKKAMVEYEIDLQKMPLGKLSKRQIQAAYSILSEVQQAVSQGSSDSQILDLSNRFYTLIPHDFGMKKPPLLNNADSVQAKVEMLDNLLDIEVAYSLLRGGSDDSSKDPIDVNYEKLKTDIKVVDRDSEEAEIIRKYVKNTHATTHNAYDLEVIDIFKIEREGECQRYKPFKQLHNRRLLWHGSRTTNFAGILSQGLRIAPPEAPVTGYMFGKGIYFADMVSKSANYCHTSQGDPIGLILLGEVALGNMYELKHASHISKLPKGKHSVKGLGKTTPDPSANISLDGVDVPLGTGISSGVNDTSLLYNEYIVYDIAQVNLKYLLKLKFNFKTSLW
Chain of X-ray repair crosscomplementing protein 1 (XRCC1), his-tag (P18887 whole entry): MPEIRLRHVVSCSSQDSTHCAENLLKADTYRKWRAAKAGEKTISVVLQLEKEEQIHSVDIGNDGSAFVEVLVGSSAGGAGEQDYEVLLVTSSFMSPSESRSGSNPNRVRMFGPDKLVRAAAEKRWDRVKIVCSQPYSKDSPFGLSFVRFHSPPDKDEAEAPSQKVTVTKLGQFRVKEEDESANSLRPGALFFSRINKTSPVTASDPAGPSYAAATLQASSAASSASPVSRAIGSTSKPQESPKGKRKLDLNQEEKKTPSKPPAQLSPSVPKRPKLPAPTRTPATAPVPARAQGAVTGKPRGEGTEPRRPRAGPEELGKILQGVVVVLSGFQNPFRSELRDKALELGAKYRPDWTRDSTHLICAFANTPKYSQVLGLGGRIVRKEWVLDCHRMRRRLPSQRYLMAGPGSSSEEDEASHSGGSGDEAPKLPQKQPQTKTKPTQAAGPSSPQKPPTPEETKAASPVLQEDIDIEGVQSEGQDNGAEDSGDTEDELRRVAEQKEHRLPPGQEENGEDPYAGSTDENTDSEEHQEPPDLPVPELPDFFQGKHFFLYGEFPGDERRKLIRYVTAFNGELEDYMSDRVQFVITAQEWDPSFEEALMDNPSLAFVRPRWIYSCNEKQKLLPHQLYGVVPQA

In general, Kd refers to the free concentration of one partner at which half of the binding sites on the other are occupied at equilibrium, for simple one-to-one binding. In assay [1], “LIGIIIα▵BRCT (1–755 amino acids) (domain or fragment)” displayed a fold difference in KD against LIGIIIα▵ZnF of 1000 fold. Moreover, the Kd in [2] is 520 nM.

The substance “poly (ADP-ribose) polymerase 1 (PARP1), his-tag (from UniProt P09874 1-1014) (enzyme)” registered an equilibrium dissociation constant (Kd) in assay [3] of 20 nM.

In the case of “DNA ligase IIIα full-length (1–922 amino acids) (enzyme)”, the dissociation constant Kd is 32 nM in assay [4], 3.3 nM in assay [1] and 7 nM in assay [2]. The fold reduction of binding against the full-length proteins in [5] turned out to be 500 fold.

Consider “X-ray repair crosscomplementing protein 1 (XRCC1), his-tag (from UniProt P18887 1-633) (natural protein; other documents disagree on this pair)”, for which the dissociation constant Kd in assay [6] came out at 10 nM.

On to “His-tag LIG1 full-length (DNA ligase 1, 1–919 amino acids) (from UniProt P18858 1-919) (enzyme)”, for which, in assay [7], the dissociation constant Kd was found to be 740 nM.

On to “LIGIIIα△ZnF (170–922 amino acids), LIGIIIα lacking the zinc-finger domain (domain or fragment)”, for which the figures for the dissociation constant Kd in [8] and in assay [9] were 4.9 nM and 27 nM, respectively.

Take “His-tag LIGIIIα full-length (DNA ligase IIIα, 1–922 amino acids) (enzyme)”: in assay [7], the dissociation constant Kd is 500 nM.

Regarding “LIGIIIα△BRCT (1–755 amino acids), LIGIIIα lacking the BRCT domain (domain or fragment)”, in [8], the Kd is 1050 nM.

In turn, “LIGIIIα▵ZnF (170–922 amino acids) (domain or fragment)” displayed a dissociation constant Kd in assay [2] of 30 nM.
